Test results reported in US20230125561A1 (PNEUMAGEN, published 2023).

What was measured:
[1] = biological target: T1, recombinant human ACE2 (Angiotensin-converting enzyme 2) (human, UniProt Q9BYF1 18-740); assay: ELISA: ACE2 immobilised at 1 µg/mL, Neumifil titrated, detected with rabbit anti-Neumifil and HRP anti-rabbit IgG, 4PL fit
T1 construct: Bought recombinant protein

[2] = biological target: T2, SARS-CoV-2 Spike S1 protein, Wuhan (Wuhan-Hu-1, Dec 2019 isolate) (SARS-CoV-2, UniProt P0DTC2 16-685); assay: ELISA: Spike S1 immobilised at 1 µg/mL, Neumifil titrated, detected with rabbit anti-Neumifil and HRP anti-rabbit IgG, 4PL fit
T2 construct: domain: S1; also called original Spike protein

T1 sequence (Q9BYF1 18-740 limits assumed): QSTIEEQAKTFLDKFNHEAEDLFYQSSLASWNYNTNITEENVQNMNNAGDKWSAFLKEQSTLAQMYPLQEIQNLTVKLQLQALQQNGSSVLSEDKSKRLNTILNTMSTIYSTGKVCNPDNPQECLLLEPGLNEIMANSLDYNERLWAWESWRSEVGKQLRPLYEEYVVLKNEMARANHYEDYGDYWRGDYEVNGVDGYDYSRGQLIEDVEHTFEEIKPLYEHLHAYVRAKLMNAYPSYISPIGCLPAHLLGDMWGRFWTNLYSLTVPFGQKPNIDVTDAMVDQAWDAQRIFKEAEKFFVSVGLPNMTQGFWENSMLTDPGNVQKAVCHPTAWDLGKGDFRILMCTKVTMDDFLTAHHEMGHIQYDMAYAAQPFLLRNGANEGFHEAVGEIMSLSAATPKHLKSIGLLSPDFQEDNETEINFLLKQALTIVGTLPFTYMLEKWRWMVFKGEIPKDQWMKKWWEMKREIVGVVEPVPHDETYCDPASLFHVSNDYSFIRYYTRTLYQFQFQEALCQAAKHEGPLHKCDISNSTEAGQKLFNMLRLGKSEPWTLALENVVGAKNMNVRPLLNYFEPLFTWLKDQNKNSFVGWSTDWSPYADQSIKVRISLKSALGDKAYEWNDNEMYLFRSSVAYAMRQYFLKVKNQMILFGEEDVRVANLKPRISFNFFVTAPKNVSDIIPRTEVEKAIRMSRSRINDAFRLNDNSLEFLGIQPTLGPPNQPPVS

B1: Neumifil (HEX17: trimeric (hexavalent) form based on S. pneumoniae CBM40) (designed binder)
chain: GAMVIEKEDVETNASNGQRVDLSSELDKLKKLENATVHMEFKPDPKAPAFYNLFSVSSATKKDEYFTMAVYNNTATLEGRGSDGKQFYNNYNDAPLKVKPGQWNSVTFTVEKPTAELPKGRARLYVNGGLSRTSLRSGNFIKDMPDVTHVQIGATKRANNTVWGSNLQIRNLTVYNRALTPEEVQKRSGGGSGVIEKEDVETNASNGQRVDLSSELDKLKKLENATVHMEFKPDPKAPAFYNLFSVSSATKKDEYFTMAVYNNTATLEGRGSDGKQFYNNYNDAPLKVKPGQWNSVTFTVEKPTAELPKGRARLYVNGGLSRTSLRSGNFIKDMPDVTHVQIGATKRANNTVWGSNLQIRNLTVYNRALTPEEVQKRSGGSLGVPDFESDWFDVSSNSLYTLSHGLQRSPRRVVVEFARSSSPSTWNIVMPSYFNDGGHKGSGAQVEVGSLNIKLGTGAAVWGTGYFGGIDNSATTRFATGYYRVRAWI
notes: also called CBM2
EC50 [1]: 0.235 mg/L | EC50 [2]: 0.174 mg/L
